From paper PMC6805484, “The RNA-binding ubiquitin ligase MKRN1 functions in ribosome-associated quality control of poly(A) translation” come the findings set out here.

The target of the data set is His-MKRN1 wt;His-PABPC1 (human (Homo sapiens);human (Homo …, UniProt Q9UHC7;P11940 1-482;1-636, |)). Description: pull-down; PABPC1 strongly increases MKRN1 recovery; Binding: 50 mM Tris-HCl pH 7.4, 500 mM KCl, 12.5 mM MgCl2, 1% Triton X-100, 1 h, 4 °C; wash: 200 mM NaCl, 10 mM MgCl2, 50 mM HEPES pH 7.4, 0.5% Igepal CA630, 1% Triton X-100. The following applies: protein: recombinant;recombinant; tags: N-His6;N-His6; copies: 1;1; label: 3' biotin.
Sequence of His-MKRN1 wt;His-PABPC1 (human (Homo sapiens);human (Q9UHC7 whole entry, chain 1 of 2): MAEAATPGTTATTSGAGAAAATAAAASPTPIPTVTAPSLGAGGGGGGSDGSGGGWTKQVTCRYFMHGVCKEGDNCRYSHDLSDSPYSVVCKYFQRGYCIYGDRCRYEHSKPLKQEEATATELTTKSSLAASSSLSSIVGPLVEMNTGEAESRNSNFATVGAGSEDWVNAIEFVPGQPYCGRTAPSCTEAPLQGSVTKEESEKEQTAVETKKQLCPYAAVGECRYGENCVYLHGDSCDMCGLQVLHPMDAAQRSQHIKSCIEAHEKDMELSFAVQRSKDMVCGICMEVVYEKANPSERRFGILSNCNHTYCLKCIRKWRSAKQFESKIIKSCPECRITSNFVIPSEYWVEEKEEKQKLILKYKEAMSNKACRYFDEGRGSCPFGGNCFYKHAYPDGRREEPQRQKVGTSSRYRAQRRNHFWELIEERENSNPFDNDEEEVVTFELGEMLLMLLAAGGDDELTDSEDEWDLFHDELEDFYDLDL
Sequence of His-MKRN1 wt;His-PABPC1 (human (Homo sapiens);human (P11940 whole entry, chain 2 of 2): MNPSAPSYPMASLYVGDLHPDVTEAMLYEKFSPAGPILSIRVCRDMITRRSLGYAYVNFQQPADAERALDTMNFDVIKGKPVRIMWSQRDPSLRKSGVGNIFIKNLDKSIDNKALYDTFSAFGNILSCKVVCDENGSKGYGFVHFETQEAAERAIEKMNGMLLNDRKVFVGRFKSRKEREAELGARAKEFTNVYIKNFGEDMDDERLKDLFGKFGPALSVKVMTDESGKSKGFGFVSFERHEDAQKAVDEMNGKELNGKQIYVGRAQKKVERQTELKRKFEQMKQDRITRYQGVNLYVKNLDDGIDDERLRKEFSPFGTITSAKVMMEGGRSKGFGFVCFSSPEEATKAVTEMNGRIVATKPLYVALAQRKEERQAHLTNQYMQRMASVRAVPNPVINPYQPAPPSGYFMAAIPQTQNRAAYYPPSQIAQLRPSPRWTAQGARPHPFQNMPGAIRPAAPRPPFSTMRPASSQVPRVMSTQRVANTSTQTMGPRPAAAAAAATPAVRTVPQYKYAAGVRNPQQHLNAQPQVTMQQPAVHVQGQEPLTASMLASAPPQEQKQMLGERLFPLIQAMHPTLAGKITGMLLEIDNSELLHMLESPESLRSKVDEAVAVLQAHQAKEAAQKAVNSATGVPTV

B1: A20 RNA (SRSF4 3' UTR end + A20) (ssRNA)
RNA: GGAAAUAAACUGUAGAGUUCCAAAAAAAAAAAAAAAAAAAAA
For B1, the binding result is recorded as “binds”.
